# Source: IntAct's records for PubMed 24553140
# B1: Autophagy-related protein 16-1 (Mus musculus), Q8C0J2 (parent)
# chain: MSSGLRAADFPRWKRHIAEELRRRDRLQRQAFEEIILQYTKLLEKSDLHSVLTQKLQAEKHDMPNRHEISPGHDGAWNDSQLQEMAQLRIKHQEELTELHKKRGELAQLVIDLNNQMQQKDKEIQMNEAKISEYLQTISDLETNCLDLRTKLQDLEVANQTLKDEYDALQITFTALEEKLRKTTEENQELVTRWMAEKAQEANRLNAENEKDSRRRQARLQKELAEAAKEPLPVEQDDDIEVIVDETSDHTEETSPVRAVSRAATKRLSQPAGGLLDSITNIFGRRSVSSIPVPQDIMDTHPASGKDVRVPTTASYVFDAHDGEVNAVQFSPGSRLLATGGMDRRVKLWEAFGDKCEFKGSLSGSNAGITSIEFDSAGAYLLAASNDFASRIWTVDDYRLRHTLTGHSGKVLSAKFLLDNARIVSGSHDRTLKLWDLRSKVCIKTVFAGSSCNDIVCTEQCVMSGHFDKKIRFWDIRSESVVREMELLGKITALDLNPERTELLSCSRDDLLKVIDLRTNAVKQTFSAPGFKCGSDWTRVVFSPDGSYVAAGSAEGSLYVWSVLTGKVEKVLSKQHSSSINAVAWAPSGLHVVSVDKGSRAVLWAQP
# Variants of: B1
# Conditions: with mlp3a_mouse Map1lc3a
row,effect of a mutation on the interaction,Variant
1,decreasing interaction,T300A
